Results from patent US20190382484A1 (Chugai, published 2019).

B1: MRAH-DA303v2/MRAL-k0 (antibody, human IgG1, kappa)
heavy: QVQLQESGPGLVRPSQTLSLTCTVSGYSITSDHAWSWVRQPPGRGLEWIGYISYSGITTYNPSLKSRVTMLRDTSKNQFSLRLSSVTAADTAVYYCARSLARTTAMDYWGQGSLVTVSSASTKGPSVFPLAPSSKSTSGGTAALGCLVKDYFPEPVTVSWNSGALTSGVHTFPAVLQSSGLYSLSSVVTVPSSSLGTQTYICNVNHKPSNTKVDKKVEPKSCDKTHTSPPSPAPEYQWGPMVFLFPPKPKDTLMISRTPEVTCVVVDVSDEEPEVKFNWYVDGVEVHNAKTKPREEQYNATYRVVSVLTVLHQDWLNGKEYKCKVSNKALPAPIEKTISKAKGQPREPQVYTLPPSRKELTKNQVSLTCLVKGFYPSDIAVEWESNGQPENNYKTTPPYLDSDGSFFLYSDLTVDKSRWQQGNVFSCSVMHEALHNHYTQKSLSLSP
light: not shown
notes: Antibody-half molecule (one H chain, one L chain); L chain MRAL-k0; also called A1; antibody-half molecule A1
B2: MRAH-DA405v2/MRAL-k0 (antibody, human IgG1, kappa)
heavy: QVQLQESGPGLVRPSQTLSLTCTVSGYSITSDHAWSWVRQPPGRGLEWIGYISYSGITTYNPSLKSRVTMLRDTSKNQFSLRLSSVTAADTAVYYCARSLARTTAMDYWGQGSLVTVSSASTKGPSVFPLAPSSKSTSGGTAALGCLVKDYFPEPVTVSWNSGALTSGVHTFPAVLQSSGLYSLSSVVTVPSSSLGTQTYICNVNHKPSNTKVDKKVEPKSCDKTHTSPPSPAPEYQWGPMVFLFPPKPKDTLMISRTPEVTCVVVDVSDEEPEVKFNWYVDGVEVHNAKTKPREEQYNATYRVVSVLTVLHQDWLNGKEYKCKVSNKALPAPIEKTISKAKGQPREPQVYTLPPSRKELTKNQVSLTCLVKGFYPSDIAVEWESNGQPENNYKTTPPYLDSDGSFFLYSTLTVDKSRWQQGNVFSCSVMHEALHNHYTQKSLSLSP
light: not shown
notes: Antibody-half molecule (one H chain, one L chain); also called A3; antibody-half molecule A3
B3: MRAH-DB405v2/MRAL-k0 (antibody, human IgG1, kappa)
heavy: QVQLQESGPGLVRPSQTLSLTCTVSGYSITSDHAWSWVRQPPGRGLEWIGYISYSGITTYNPSLKSRVTMLRDTSKNQFSLRLSSVTAADTAVYYCARSLARTTAMDYWGQGSLVTVSSASTKGPSVFPLAPSSKSTSGGTAALGCLVKDYFPEPVTVSWNSGALTSGVHTFPAVLQSSGLYSLSSVVTVPSSSLGTQTYICNVNHKPSNTKVDKKVEPKSCDKTHTSPPSPAPELLGGPSVFLFPPKPKDTLMISRTPEVTCVVVDVSHEEPEVKFNWYVDGVEVHNAKTKPREEQYNSTYRVVSVLTVLHQDWLNGKEYKCKVSNDALPMPIEETISKAKGQPREPQVYTLPPSRDELTKNQVSLTCLVKGFYPSDIAVEWESNGQPENNYKTTPPYLDSDGSFFLYSTLTVDKSRWQQGNVFSCSVMHEALHNHYTQESLSLSP
light: not shown
notes: Antibody-half molecule (one H chain, one L chain); also called B3; antibody-half molecule B3
B4: MRAH-DB424v2/MRAL-k0 (antibody, human IgG1, kappa)
heavy: QVQLQESGPGLVRPSQTLSLTCTVSGYSITSDHAWSWVRQPPGRGLEWIGYISYSGITTYNPSLKSRVTMLRDTSKNQFSLRLSSVTAADTAVYYCARSLARTTAMDYWGQGSLVTVSSASTKGPSVFPLAPSSKSTSGGTAALGCLVKDYFPEPVTVSWNSGALTSGVHTFPAVLQSSGLYSLSSVVTVPSSSLGTQTYICNVNHKPSNTKVDKKVEPKSCDKTHTSPPSPAPELLGGPSVFLFPPKPKDTLMISRTPEVTCVVVDVSHEEPEVKFNWYVDGVEVHNAKTKPREEQYNSTYRVVSVLTVLHQDWLNGKEYKCKVSNDALPMPIEETISKAKGQPREPQVYTLPPSRDNLTKNQVSLTCLVKGFYPSDIAVEWESNGQPENNYKTTPPYLDSDGSFFLYSDLTVDKSRWQQGNVFSCSVMHEALHNHYTQESLSLSP
light: not shown
notes: Antibody-half molecule (one H chain, one L chain); also called antibody-half molecule B4
B5: MRAH-DA430v2/MRAL-k0 (antibody, human IgG1, kappa)
heavy: QVQLQESGPGLVRPSQTLSLTCTVSGYSITSDHAWSWVRQPPGRGLEWIGYISYSGITTYNPSLKSRVTMLRDTSKNQFSLRLSSVTAADTAVYYCARSLARTTAMDYWGQGSLVTVSSASTKGPSVFPLAPSSKSTSGGTAALGCLVKDYFPEPVTVSWNSGALTSGVHTFPAVLQSSGLYSLSSVVTVPSSSLGTQTYICNVNHKPSNTKVDKKVEPKSCDKTHTSPPSPAPEYQWGPMVFLFPPKPKDTLMISRTPEVTCVVVDVSDEEPEVKFNWYVDGVEVHNAKTKPREEQYNATYRVVSVLTVLHQDWLNGKEYKCKVSNKALPAPIEKTISKAKGQPREPQVYTLPPSRKLLTKNQVSLTCLVKGFYPSDIAVEWESNGQPENNYKTTPPYLDSDGSFFLYSDLTVDKSRWQQGNVFSCSVMHEALHNHYTQKSLSLSP
light: not shown
notes: Antibody-half molecule (one H chain, one L chain); also called A5; antibody-half molecule A5
B6: MRAH-DB430v2/MRAL-k0 (antibody, human IgG1, kappa)
heavy: QVQLQESGPGLVRPSQTLSLTCTVSGYSITSDHAWSWVRQPPGRGLEWIGYISYSGITTYNPSLKSRVTMLRDTSKNQFSLRLSSVTAADTAVYYCARSLARTTAMDYWGQGSLVTVSSASTKGPSVFPLAPSSKSTSGGTAALGCLVKDYFPEPVTVSWNSGALTSGVHTFPAVLQSSGLYSLSSVVTVPSSSLGTQTYICNVNHKPSNTKVDKKVEPKSCDKTHTSPPSPAPELLGGPSVFLFPPKPKDTLMISRTPEVTCVVVDVSHEEPEVKFNWYVDGVEVHNAKTKPREEQYNSTYRVVSVLTVLHQDWLNGKEYKCKVSNDALPMPIEETISKAKGQPREPQVYTLPPSRDLLTKNQVSLTCLVKGFYPSDIAVEWESNGQPENNYKTTPPYLDSDGSFFLYSDLTVDKSRWQQGNVFSCSVMHEALHNHYTQESLSLSP
light: not shown
notes: Antibody-half molecule (one H chain, one L chain); also called B5; antibody-half molecule B5
B7: MRAH-DA424v2/MRAL-k0 (antibody, human IgG1, kappa)
heavy: QVQLQESGPGLVRPSQTLSLTCTVSGYSITSDHAWSWVRQPPGRGLEWIGYISYSGITTYNPSLKSRVTMLRDTSKNQFSLRLSSVTAADTAVYYCARSLARTTAMDYWGQGSLVTVSSASTKGPSVFPLAPSSKSTSGGTAALGCLVKDYFPEPVTVSWNSGALTSGVHTFPAVLQSSGLYSLSSVVTVPSSSLGTQTYICNVNHKPSNTKVDKKVEPKSCDKTHTSPPSPAPEYQWGPMVFLFPPKPKDTLMISRTPEVTCVVVDVSDEEPEVKFNWYVDGVEVHNAKTKPREEQYNATYRVVSVLTVLHQDWLNGKEYKCKVSNKALPAPIEKTISKAKGQPREPQVYTLPPSRKNLTKNQVSLTCLVKGFYPSDIAVEWESNGQPENNYKTTPPYLDSDGSFFLYSDLTVDKSRWQQGNVFSCSVMHEALHNHYTQKSLSLSP
light: not shown
notes: Antibody-half molecule (one H chain, one L chain); also called antibody-half molecule A4
B8: MRAH-DA402v2/MRAL-k0 (antibody, human IgG1, kappa)
heavy: QVQLQESGPGLVRPSQTLSLTCTVSGYSITSDHAWSWVRQPPGRGLEWIGYISYSGITTYNPSLKSRVTMLRDTSKNQFSLRLSSVTAADTAVYYCARSLARTTAMDYWGQGSLVTVSSASTKGPSVFPLAPSSKSTSGGTAALGCLVKDYFPEPVTVSWNSGALTSGVHTFPAVLQSSGLYSLSSVVTVPSSSLGTQTYICNVNHKPSNTKVDKKVEPKSCDKTHTSPPSPAPEYQWGPMVFLFPPKPKDTLMISRTPEVTCVVVDVSDEEPEVKFNWYVDGVEVHNAKTKPREEQYNATYRVVSVLTVLHQDWLNGKEYKCKVSNKALPAPIEKTISKAKGQPREPQVYTLPPSRKELTKNQVSLTCLVKGFYPSDIAVEWESNGQPENNYKTTPPYLDSDGSFFLYSHLTVDKSRWQQGNVFSCSVMHEALHNHYTQKSLSLSP
light: not shown
notes: Antibody-half molecule (one H chain, one L chain); also called A2; antibody-half molecule A2
B9: MRAH-DB402v2/MRAL-k0 (antibody, human IgG1, kappa)
heavy: QVQLQESGPGLVRPSQTLSLTCTVSGYSITSDHAWSWVRQPPGRGLEWIGYISYSGITTYNPSLKSRVTMLRDTSKNQFSLRLSSVTAADTAVYYCARSLARTTAMDYWGQGSLVTVSSASTKGPSVFPLAPSSKSTSGGTAALGCLVKDYFPEPVTVSWNSGALTSGVHTFPAVLQSSGLYSLSSVVTVPSSSLGTQTYICNVNHKPSNTKVDKKVEPKSCDKTHTSPPSPAPELLGGPSVFLFPPKPKDTLMISRTPEVTCVVVDVSHEEPEVKFNWYVDGVEVHNAKTKPREEQYNSTYRVVSVLTVLHQDWLNGKEYKCKVSNDALPMPIEETISKAKGQPREPQVYTLPPSRDELTKNQVSLTCLVKGFYPSDIAVEWESNGQPENNYKTTPPYLDSDGSFFLYSHLTVDKSRWQQGNVFSCSVMHEALHNHYTQESLSLSP
light: not shown
notes: Antibody-half molecule (one H chain, one L chain); also called B2; antibody-half molecule B2
B10: MRAH-DB220v2/MRAL-k0 (antibody, human IgG1, kappa)
heavy: QVQLQESGPGLVRPSQTLSLTCTVSGYSITSDHAWSWVRQPPGRGLEWIGYISYSGITTYNPSLKSRVTMLRDTSKNQFSLRLSSVTAADTAVYYCARSLARTTAMDYWGQGSLVTVSSASTKGPSVFPLAPSSKSTSGGTAALGCLVKDYFPEPVTVSWNSGALTSGVHTFPAVLQSSGLYSLSSVVTVPSSSLGTQTYICNVNHKPSNTKVDKKVEPKSCDKTHTSPPSPAPELLGGPSVFLFPPKPKDTLMISRTPEVTCVVVDVSHEEPEVKFNWYVDGVEVHNAKTKPREEQYNSTYRVVSVLTVLHQDWLNGKEYKCKVSNDALPMPIEETISKAKGQPREPQVYTLPPSRDELTKNQVSLTCLVKGFYPSDIAVEWESNGQPENNYKTTPPYLDSDGSFFLYSDLTVDKSRWQQGNVFSCSVMHEALHNHYTQESLSLSP
light: not shown
notes: Antibody-half molecule (one H chain, one L chain); also called B1; antibody-half molecule B1

Each binder was assayed against T1, FcγRIIIa extracellular domain (UniProt P08637 17-208, limits assumed) (assay: SPR (Biacore T200), half molecule captured via biotinylated antigen peptide on CAP chip, FcγR as analyte).
T1 construct: extracellular domain; Purified over HisTrap, so a His tag is implied
T1 sequence (P08637 17-208 limits assumed): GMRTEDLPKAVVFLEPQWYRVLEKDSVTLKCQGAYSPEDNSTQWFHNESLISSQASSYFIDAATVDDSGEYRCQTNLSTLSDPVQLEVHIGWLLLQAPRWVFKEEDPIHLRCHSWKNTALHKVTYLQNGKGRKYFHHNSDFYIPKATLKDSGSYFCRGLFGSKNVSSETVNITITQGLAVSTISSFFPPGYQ

Binding result, no binding:
B1, B2, B3, B4, B5, B6, B7, B8, B9, B10
